What was measured:
[1] = biological target: T1, human IL-23 (human, UniProt Q9NPF7 20-189; P29460 23-328); assay: blocking ELISA (Example 9): purified antibody pre-incubated with endogenous human IL-23 (3.5 ng/ml, from stimulated dendritic cells), binding to plate-coated recombinant human IL-23 receptor detected with biotinylated anti-human IL-12; 1% BSA
T1 construct: Heterodimer of p19 and p40; also called hIL-23; recombinant human IL-23
T1 sequence 1: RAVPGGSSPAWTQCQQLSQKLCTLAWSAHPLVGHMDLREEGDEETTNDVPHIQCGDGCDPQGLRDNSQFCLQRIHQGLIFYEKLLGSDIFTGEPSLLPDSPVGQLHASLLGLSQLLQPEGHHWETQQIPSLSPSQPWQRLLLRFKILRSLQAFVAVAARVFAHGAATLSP
T1 sequence 2: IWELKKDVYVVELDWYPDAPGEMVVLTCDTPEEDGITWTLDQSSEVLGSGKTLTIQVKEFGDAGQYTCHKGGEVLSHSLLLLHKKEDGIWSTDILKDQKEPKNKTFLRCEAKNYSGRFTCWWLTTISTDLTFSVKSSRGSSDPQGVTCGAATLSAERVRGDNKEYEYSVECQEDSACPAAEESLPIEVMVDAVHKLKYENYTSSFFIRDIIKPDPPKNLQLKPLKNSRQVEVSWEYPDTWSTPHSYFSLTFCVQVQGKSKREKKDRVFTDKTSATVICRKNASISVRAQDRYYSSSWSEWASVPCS
Protocol: Recombinant human IL-23 Receptor (R&D systems 1400-IR-050) was coated onto 96 well plates at a concentration of 1 μg/ml. Endogenous human IL-23 at 3.5 ng/ml final, was pre incubated for 1 hour with a titration of purified antibody material before being added to the pre-coated plates. Detection was performed with biotinylated anti-human IL12 (R&D systems BAF-219) followed by Streptavidin-HRP (GE Healthcare RPN 4401). This neutralisation ELISA used 1% BSA.

[2] = biological target: T1, human IL-23; assay: blocking ELISA, optimised protocol (Example 6): antibody pre-incubated with constant human IL-23, binding to plate-coated human IL-23R Fc chimera detected with biotinylated anti-human IL-12, OD450; purified antibody
Protocol: Optimised protocol: Plates were coated with human IL23R Fc chimera at […] (phosphate buffered saline). 50 μl/well of this mixture was incubated overnight at 4° C. The plates were then washed three times with Phosphate Buffered Saline with 0.05% Tween 20 (PBST). Plates were blocked with 4% skim milk powder (Fluka BioChemika #70166) PBST 100 μl/well for a minimum of 1 hour at room temperature. The plates were then washed three times with Phosphate Buffered Saline+0.05% Tween 20 (PBST). Various concentrations of antibody were incubated in a separate plate with a constant concentration of IL-23 for 1 hour at room temperature. 50 ul of each mixture were transferred to the assay plate and incubated at RT for 1 hr. They were then washed three times with Phosphate Buffered Saline+0.05% Tween 20 (PBST). Bound IL23 was detected by anti human IL12 Biotin labelled Ab (R&D systems BAF219) diluted to 100 ng/ml in 4% skim milk powder (Fluka BioChemika #70166) PBST. 50 μl/well of the biotinylated antibody was added and incubated at RT for 1 hour. The plates were then washed three times with Phosphate Buffered Saline+0.05% Tween 20 (PBST). SA HRP (GE healthcare RPN4401) was diluted 1/4000 in 4% skim milk powder (Fluka BioChemika #70166) PBS, 50 μl/well was added to the plates. […] The plate was read at OD450 nm using the SOftmaxPRO versamax plate reader.

[3] = biological target: T1, human IL-23; assay: blocking ELISA (Example 10): purified antibody pre-incubated with endogenous human IL-23 (5 ng/ml), binding to plate-coated recombinant human IL-23 receptor detected with biotinylated anti-human IL-12; 25% human pooled AB serum
Protocol: Recombinant human IL-23 Receptor (R&D systems 1400-IR-050) was coated onto 96 well plates at a concentration of 1 μg/ml. Endogenous human IL-23 at 5 ng/ml final, was pre incubated with a titration of purified mAbs before being added to the pre-coated plates. Detection was performed with biotinylated anti-human IL12 (R&D systems BAF-219), followed by Streptavidin-HRP (GE Healthcare RPN 4401). This neutralisation ELISA used 25% human pooled AB type serum. 8C92H₆, HC1LC1, and A3M0 retain their activity in human serum and inhibit binding of endogenous human IL-23 binding to human IL-23 receptor.

B1: murine mAb 8C9 2H6 (antibody, V domains shown)
VH: QVQLQQSGAELARPGTSVKLSCKASGYTFTSYGITWVKQRTGQGLEWIGENYPRSGNTYYNEKFKGKATLTADKSSSTAYMELRSLTSEDSAVYFCARCEFISTVVAPYYYALDYWGQGTSVTVSS
VL: DIVLTQSPASLAVSLGQKATISCKASKKVTIFGSISALHWYQQKPGQPPKLIYNGAKLESGVSARFSDSGSQNRSPFGNQLSFTLTIDPVEADDAATYYCLQNKEVPYTFGGGTKLEIK
notes: Murine hybridoma antibody; also called 8C92H6 (mouse parental); murine 8C92H6 mAb
[1]
  IC50 (read off the curve): ~0.05 µg/mL

B2: A3N2 (antibody, human IgG1, kappa, V domains shown)
VH: QVQLVQSGAEVKKPGSSVKVSCKASGYTFTSYGITWVRQAPGQGLEWMGENYPRSGNTYYNEKFKGRVTITADKSTSTAYMELSSLRSEDTAVYYCARSEFISTVVAPYYYALDYWGQGTLVTVSS
VL: DIVMTQTPLSLSVTPGQPASISCKASKKVTIFGSISALHWYLQKPGQPPQLIYNGAKLESGVSDRFSDSGSGTDFTLKISRVEAEDVGVYYCLQNKEVPYTFGGGTKVEIKR
[2]
  IC50 (read off the curve): ~0.9 nM

B3: A3M0 (antibody, human IgG1, kappa, V domains shown)
VH: QVQLVQSGAEVKKPGSSVKVSCKASGYTFTSYGITWVRQAPGQGLEWMGENYPRSGNTYYNEKFKGRVTITADKSTSTAYMELSSLRSEDTAVYYCARSEFISTVVAPYYYALDYWGQGTLVTVSS
VL: DIVMTQSPDSLAVSLGERATINCKASKKVTIFGSISALHWYQQKPGQPPKLIYNGAKLESGVPDRFSGSGSGTDFTLTISSLQAEDVAVYYCLQNKEVPYTFGGGTKVEIKR
notes: Humanised, human gamma1 and kappa constant regions; also called A3M0 (humanised)
[3]
  IC50 (read off the curve): ~0.02 µg/mL
